Data on 1 protein can be found in FireProtDB (doi:10.1016/j.bpc.2006.10.013).

For the data set the following is noted: Clostridium pasteurianum; pH 9.08; Thermal; NMR; Sodium borate 100 mM; reversible: Yes; whole UniProt chain shown.

B1: Rubredoxin wild type, P00268 (protein)
chain: MKKYTCTVCGYIYNPEDGDPDNGVNPGTDFKDIPDDWVCPLCGVGKDQFEEVEE
The Tm is the temperature at the midpoint of the melting transition. On to B1, for which the Tm is 107 °C, the “heat capacity change of unfolding” value came out at 0.5 kcal/mol/K and the “unfolding enthalpy (van 't Hoff)” value came out at 62 kcal/mol.
